Laboratory results taken from US20160369008A1.

Experiments:
[1] = target: recombinant active human PAI-1 (human) (UniProt P05121); test: cell-based or functional assay
[2] = target: active monkey PAI-1 in complex with vitronectin (monkey); test: ELISA, VTN-monkey PAI-1 complex on the plate
[3] = target: uPA-monkey PAI-1 complex (monkey) (UniProt P00749); test: ELISA, uPA-monkey PAI-1 complex on the plate
[4] = target: active PAI-1 in monkey plasma (cynomolgus monkey) (UniProt G7P138); test: ELISA: inhibition of the capture of active PAI-1 of monkey plasma on immobilised uPA (Example 9)
[5] = target: latent monkey PAI-1 (monkey) (UniProt G7P138); test: ELISA, latent monkey PAI-1 on the plate
[6] = target: human PAI-1 in complex with uPA (human) (UniProt P05121); test: ELISA, uPA-PAI-1 complex on the plate
[7] = target: active human PAI-1 in complex with vitronectin (human) (UniProt P05121); test: ELISA, VTN-PAI-1 complex on the plate
[8] = target: latent human PAI-1 (human) (UniProt P05121); test: ELISA, latent human PAI-1 on the plate
[9] = target: human PAI-1 in complex with tPA (human) (UniProt P05121); test: ELISA, tPA-PAI-1 complex on the plate
[10] = target: active PAI-1 in human plasma (human) (UniProt P05121); test: ELISA: inhibition of the capture of active PAI-1 of human plasma on immobilised uPA (Example 9)
[11] = target: tPA-monkey PAI-1 complex (monkey); test: ELISA, tPA-monkey PAI-1 complex on the plate
Chain of tPA-monkey PAI-1 complex (monkey) (P00750 36-562, one chain of several): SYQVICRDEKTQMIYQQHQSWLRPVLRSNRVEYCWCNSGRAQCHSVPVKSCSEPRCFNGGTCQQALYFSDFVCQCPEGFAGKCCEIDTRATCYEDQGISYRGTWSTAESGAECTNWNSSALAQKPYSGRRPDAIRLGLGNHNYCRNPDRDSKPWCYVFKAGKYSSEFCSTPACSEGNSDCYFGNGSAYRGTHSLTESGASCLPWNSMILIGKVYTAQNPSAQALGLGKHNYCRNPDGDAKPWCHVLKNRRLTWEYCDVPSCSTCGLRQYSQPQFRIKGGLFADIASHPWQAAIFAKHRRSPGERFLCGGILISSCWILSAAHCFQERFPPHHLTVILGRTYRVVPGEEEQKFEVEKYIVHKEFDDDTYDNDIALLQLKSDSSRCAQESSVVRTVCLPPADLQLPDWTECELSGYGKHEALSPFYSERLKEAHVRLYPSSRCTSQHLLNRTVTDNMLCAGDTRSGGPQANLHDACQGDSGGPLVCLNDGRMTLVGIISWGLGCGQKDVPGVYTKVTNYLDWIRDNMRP

Chain of MEDI-579 (antibody) (VH): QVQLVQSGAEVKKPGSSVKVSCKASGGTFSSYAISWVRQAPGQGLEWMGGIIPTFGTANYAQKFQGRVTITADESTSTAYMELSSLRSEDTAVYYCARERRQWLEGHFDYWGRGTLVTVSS
Chain of MEDI-579 (antibody) (VL): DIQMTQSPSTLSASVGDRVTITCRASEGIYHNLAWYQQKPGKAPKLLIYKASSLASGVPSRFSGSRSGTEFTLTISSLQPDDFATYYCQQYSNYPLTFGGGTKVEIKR
Chain of active monkey PAI-1 in complex with vitronectin (monkey) (P04004 20-478, one chain of several): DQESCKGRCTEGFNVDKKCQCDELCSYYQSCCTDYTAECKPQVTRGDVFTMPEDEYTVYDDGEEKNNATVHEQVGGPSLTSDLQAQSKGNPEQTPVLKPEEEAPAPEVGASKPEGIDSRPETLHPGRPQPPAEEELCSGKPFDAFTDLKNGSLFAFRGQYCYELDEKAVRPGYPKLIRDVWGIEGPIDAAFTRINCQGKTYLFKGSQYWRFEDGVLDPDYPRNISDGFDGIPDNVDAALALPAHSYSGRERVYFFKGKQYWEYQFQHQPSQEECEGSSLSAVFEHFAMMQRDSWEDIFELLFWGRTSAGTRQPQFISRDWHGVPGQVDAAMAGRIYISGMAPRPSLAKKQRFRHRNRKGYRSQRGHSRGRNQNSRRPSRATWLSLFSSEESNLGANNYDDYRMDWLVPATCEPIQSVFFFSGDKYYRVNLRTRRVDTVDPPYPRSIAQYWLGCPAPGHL

Substance MEDI-579 (antibody) has an EC50 value, taking the activity of uPA as an indicator (cleavage of a fluorogenic uPA substrate peptide) [1] of 42.1 ng/mL, an EC50 [2] of 4.1 ng/mL and an EC50 [3] of 5.4 ng/mL. The IC50 [4] was 0.83 ng/mL, the EC50 [5] was 48.2 ng/mL and the EC50 [6] was 6.1 ng/mL. The EC50 [7] was 5.2 ng/mL, the EC50 [8] was 22.1 ng/mL and the EC50 [9] was 3.2 ng/mL. It also gave an IC50 [10] of 0.73 ng/mL and an EC50 [11] of 4.3 ng/mL.
